For this experiment, the target named is chicken transferrin receptor, endogenous on chicken embryo fibroblasts (chicken (endogenous in CEF), UniProt Q90997 1-776). The experiment is described as follows: radioligand binding.
chicken transferrin receptor, endogenous on chicken embryo fibroblasts, sequence (Q90997 whole entry): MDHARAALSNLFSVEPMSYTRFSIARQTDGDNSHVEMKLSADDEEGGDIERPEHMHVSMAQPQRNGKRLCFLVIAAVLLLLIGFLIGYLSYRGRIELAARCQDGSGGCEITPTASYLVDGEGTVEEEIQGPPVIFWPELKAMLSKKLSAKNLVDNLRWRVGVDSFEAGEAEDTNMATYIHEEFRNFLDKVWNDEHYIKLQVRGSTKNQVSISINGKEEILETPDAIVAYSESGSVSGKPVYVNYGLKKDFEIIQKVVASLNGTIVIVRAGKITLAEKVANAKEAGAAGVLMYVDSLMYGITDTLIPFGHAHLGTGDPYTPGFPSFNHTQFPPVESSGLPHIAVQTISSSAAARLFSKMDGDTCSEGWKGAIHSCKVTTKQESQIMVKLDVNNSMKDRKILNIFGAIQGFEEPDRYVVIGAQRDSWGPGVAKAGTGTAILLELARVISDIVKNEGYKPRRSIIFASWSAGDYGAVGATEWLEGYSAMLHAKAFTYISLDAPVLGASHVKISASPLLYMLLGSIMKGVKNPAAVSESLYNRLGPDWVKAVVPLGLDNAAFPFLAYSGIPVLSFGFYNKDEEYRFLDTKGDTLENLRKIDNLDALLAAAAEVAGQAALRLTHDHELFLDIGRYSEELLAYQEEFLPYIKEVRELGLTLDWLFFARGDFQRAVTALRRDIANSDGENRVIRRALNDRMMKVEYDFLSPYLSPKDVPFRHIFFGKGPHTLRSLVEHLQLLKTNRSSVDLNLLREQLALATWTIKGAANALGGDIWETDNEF

B1: ovotransferrin (ligand)
chain: APPKSVIRWCTISSPEEKKCNNLRDLTQQERISLTCVQKATYLDCIKAIANNEADAISLDGGQAFEAGLAPYKLKPIAAEVYEHTEGSTTSYYAVAVVKKGTEFTVNDLQGKTSCHTGLGRSAGWNIPIGTLLHRGAIEWEGIESGSVEQAVAKFFSASCVPGATIEQKLCRQCKGDPKTKCARNAPYSGYSGAFHCLKDGKGDVAFVKHTTVNENAPDQKDEYELLCLDGSRQPVDNYKTCNWARVAAHAVVARDDNKVEDIWSFLSKAQSDFGVDTKSDFHLFGPPGKKDPVLKDLLFKDSAIMLKRVPSLMDSQLYLGFEYYSAIQSMRKDQLTPSPRENRIQWCAVGKDEKSKCDRWSVVSNGDVECTVVDETKDCIIKIMKGEADAVALDGGLVYTAGVCGLVPVMAERYDDESQCSKTDERPASYFAVAVARKDSNVNWNNLKGKKSCHTAVGRTAGWVIPMGLIHNRTGTCNFDEYFSEGCAPGSPPNSRLCQLCQGSGGIPPEKCVASSHEKYFGYTGALRCLVEKGDVAFIQHSTVEENTGGKNKADWAKNLQMDDFELLCTDGRRANVMDYRECNLAEVPTHAVVVRPEKANKIRDLLERQEKRFGVNGSEKSKFMMFESQNKDLLFKDLTKCLFKVREGTTYKEFLGDKFYTVISSLKTCNPSDILQMCSFLEGK
The term Kd denotes a measure of binding affinity in units of concentration. Higher therefore signals a looser complex. B1 registered an equilibrium dissociation constant (Kd) of approximately 100 nM.

Values taken from paper PMC2116009 (The Journal of Cell Biology, 1990).
